Assay results reported in US20240011101A1, “METHOD OF DETERMINING RESISTANCE TO CHECKPOINT INHIBITOR THERAPIES” (Shattuck Labs, Inc., priority 2020, published 2024).

Tests used:
wild type CT26 cells = assay: RNA-seq gene expression (TPM) of wild type CT26 cells cultured with or without IFNγ; assay type: cell-based; conditions: 20 ng/mL mouse IFNγ, 24 hours, vs without IFNγ
Protocol: (§1) Three distinct vials of parental CT26 cells (ATCC; “experimental replicates”), two independently isolated tumors from “2nd round” mice, four independently isolated tumors from “4th round” mice (both “biological replicates”) were cultured with or without 20 ng/mL of mouse IFNγ (Biolegend) for 24 hours at […]. The following day, RNA was isolated from cells using Qiagen RNeasy reagents according to manufacturer's instructions, including QIASHREDDER homogenization and on-column DNaseI digestion. Isolated RNA was subjected to RNA-seq and data analysis. Briefly, sequencing libraries were generated and sequenced on an ILLUMINA HISEQ (2×150 paired end reads), targeting >20×10^6 reads per sample. Sequences were trimmed using TRIMMOMATIC v.0.36 and mapped to the Mus musculus GRCm38 reference genome using the STAR ALIGNER v.2.5.2b. Unique gene hit counts were calculated by using FEATURECOUNTS from the SUBREAD package v.1.5.2. Only unique reads that fell within exon regions were counted. Differential gene expression was determined using DESeq2, and the Wald test was used to generate p-values and log 2 fold changes; with log 2 fold change >1 and adjusted p-values <0.05 as cutoffs for significance.
Next, the effect of IFNγ on the expression of certain genes that are differentially expressed in the 4th generation anti-PD-1 resistant cells compared to the wild type CT26 cells was studied. Briefly, the parental CT26 cells, second generation anti-PD-1 resistant cells and 4th generation anti-PD-1 resistant cells were cultured with or without 20 ng/mL of mouse IFNγ (Biolegend) for 24 hours at 37° C./[…]. The following day, RNA was isolated from cells using Qiagen RNeasy reagents according to manufacturer's instructions, including QIASHREDDER homogenization and on-column DNaseI digestion. Isolated RNA was subjected to RNA-seq and data analysis. Briefly, sequencing libraries were generated and sequenced on an ILLUMINA HISEQ (2×150 paired end reads), targeting >20×10^6 reads per sample. Sequences were trimmed using TRIMMOMATIC v.0.36 and mapped to the Mus musculus GRCm38 reference genome using the STAR ALIGNER v.2.5.2b. Unique gene hit counts were calculated by using FEATURECOUNTS from the SUBREAD package v.1.5.2. Only unique reads that fell within exon regions were counted. Differential gene expression was determined using DESeq2, and the Wald test was used to generate p-values and log 2 fold changes; with log 2 fold change >1 and adjusted p-values <0.05 as cutoffs for significance.

[1] = tested on: 4th generation anti-PD-1 resistant cells; assay: RNA-seq gene expression (TPM) of 4th generation anti-PD-1 resistant CT26 cells cultured with or without IFNγ; assay type: cell-based, Mus musculus
Protocol: as §1
Next the transcriptomic profile of the 2nd and 4th generation anti-PD-1 resistant cell lines was studied by comparison with each other and with an anti-PD-1 primarily resistant cell line. The B16.F10 murine melanoma tumor cell line was used as a model of anti-PD-1 “primary resistance,” as these tumors are not responsive to anti-PD-1 therapy. Three distinct vials of parental CT26 cells (ATCC; “experimental replicates”), two independently isolated tumors from “2nd round” mice, four independently isolated tumors from “4th round” mice (both “biological replicates”), and two distinct vials of parental B16.F10 cells (ATCC; “experimental replicates were cultured with or without 20 ng/mL of mouse IFNγ (Biolegend) for 24 hours at 37° C./5% CO2 to assess in vitro responsiveness. This mimics how tumor cells respond in vivo, as immune cell infiltrate and secrete effector cytokines like IFNγ. The following day, RNA was isolated from cells using Qiagen RNeasy reagents according to manufacturers instructions, including QIASHREDDER homogenization and on-column DNaseI digestion. Isolated RNA was subjected to RNA-seq and data analysis. Briefly, sequencing libraries were generated and sequenced on an ILLUMINA HISEQ (2×150 paired end reads), targeting >20×10^6 reads per sample. Sequences were trimmed using TRIMMOMATIC v.0.36 and mapped to the Mus musculus GRCm38 reference genome using the STAR ALIGNER v.2.5.2b. Unique gene hit counts were calculated by using FEATURECOUNTS from the SUBREAD package v.1.5.2. Only unique reads that fell within exon regions were counted. Differential gene expression was determined using DESeq2, and the Wald test was used to generate p-values and log 2 fold changes; with log 2 fold change >1 and adjusted p-values <0.05 as cutoffs for significance. The DEGs were identified between untreated and IFNγ treated parental CT26. As shown in FIG. 4A (Left Panel), Log 2 fold-change was plotted in the heatmap and genes are hierarchical clustered based on parental CT26. Of these, 338 genes had usable data from the other datasets; and those values are shown in the other columns (FIG. 4A (Left Panel)). Genes separated into 3 major clusters (FIG. 4A (Left Panel)). Associated genes were input into PANTHER to identify pathways associated with the dysregulated genes and the GO pathways associated with the DEGs were identified. As shown in FIG. 4A (Right Panel), the upregulation of expression of the genes associated with following GO pathways was enriched in 2nd generation cells and 4th generation cells compared to both parental CT26 cells and B16.F10 cells: L-phenyl alanine catabolic process, phospholipid efflux, tyrosine catabolic process, positive regulation of transcription from RNA polymerase II promoter in response to acidic pH, and drug export. […]

B1: IFNγ: mouse IFNγ (Biolegend), cytokine added to cell cultures at 20 ng/mL for 24 hours (protein, UniProt P01580 23-155, looked up)
Interferon gamma: HGTVIESLESLNNYFNSSGIDVEEKSLFLDIWRNWQKDGDMKILQSQIISFYLRLFEVLKDNQAISNNISVIESHLITTFFSNSKAKKDAFMSIAKFEVNNPQVQRQAFNELIRVVHQLLPESSLRKRKRSRC
downregulate: expression of type I and type II interferon genes (baseline hyperactivated) ([1]; CT26 anti-PD-1 resistant cells challenged with IFNγ (20 ng/mL, 24 hours), FIG. 4B)
repressed: expression of CD274 ([1]; in the presence of IFNγ (20 ng/mL, 24 hours), FIG. 5A) | expression of B2m ([1]; in the presence of IFNγ (20 ng/mL, 24 hours), FIG. 5B) | expression of Stat1 ([1]; in the presence of IFNγ (20 ng/mL, 24 hours), FIG. 7A) | expression of Stat2 ([1]; in the presence of IFNγ (20 ng/mL, 24 hours), FIG. 7B) | expression of Irf1 ([1]; in the presence of IFNγ (20 ng/mL, 24 hours), FIG. 7C) | expression of Tap1 ([1]; in the presence of IFNγ (20 ng/mL, 24 hours), FIG. 7D) | expression of Ccl5 (RANTES) ([1]; in the presence of IFNγ (20 ng/mL, 24 hours), FIG. 9A) | expression of Cxcl10 (IP-10) ([1]; in the presence of IFNγ (20 ng/mL, 24 hours), FIG. 9B) | expression of Ifnb1 ([1]; in the presence of IFNγ (20 ng/mL, 24 hours), FIG. 9C)
overexpressed: expression of Trim7 ([1]; in response to IFNγ (20 ng/mL, 24 hours), FIG. 5C) | expression of Lrg1 ([1]; in response to IFNγ (20 ng/mL, 24 hours), FIG. 5D)
increased: expression of Cd274 (PD-L1) (wild type CT26 cells; FIG. 5A) | expression of B2M (wild type CT26 cells; FIG. 5B) | expression of Trim7 (wild type CT26 cells; FIG. 5C) | expression of Lrg1 (wild type CT26 cells; FIG. 5D) | expression of Stat1 (wild type CT26 cells; FIG. 7A) | expression of Stat2 (wild type CT26 cells; FIG. 7B) | expression of Irf1 (wild type CT26 cells; FIG. 7C) | expression of Tap1 (wild type CT26 cells; FIG. 7D) | expression of Ccl5 (RANTES) (wild type CT26 cells; FIG. 9A) | expression of Cxcl10 (IP-10) (wild type CT26 cells; FIG. 9B) | expression of Ifnb1 (wild type CT26 cells; FIG. 9C)
